Where no end group is shown, it is not given here.
Assays:
[1] = molecular target: T1, reduced p38α (MAPK14), recombinant mouse protein kept with reducing agent (DTT or TCEP) (mouse, UniProt P47811 1-360); assay: ITC
[2] = molecular target: T1, reduced p38α (MAPK14), recombinant …; assay: ITC; oxidized p38α re-reduced by dialysis with TCEP

T1 sequence (P47811 whole entry): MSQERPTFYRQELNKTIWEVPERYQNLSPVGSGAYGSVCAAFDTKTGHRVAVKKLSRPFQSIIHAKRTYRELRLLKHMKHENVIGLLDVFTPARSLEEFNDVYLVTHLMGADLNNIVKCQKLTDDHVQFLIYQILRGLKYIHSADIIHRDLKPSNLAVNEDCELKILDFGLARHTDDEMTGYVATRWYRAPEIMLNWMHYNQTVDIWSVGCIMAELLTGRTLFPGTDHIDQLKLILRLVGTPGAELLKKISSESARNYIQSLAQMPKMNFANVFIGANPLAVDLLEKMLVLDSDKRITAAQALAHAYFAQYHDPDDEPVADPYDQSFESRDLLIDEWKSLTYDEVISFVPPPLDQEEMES

B1: FITC-TAB1 peptide (amino acids 384-412 of TAB1) (peptide)
peptide: RVYPVSVPYSSAQSTSKTSVTLSLVMPSQ
modifications: also: FITC label, end not given here
A Kd [1] of 1200 nM and a Kd [2] of 2660 nM were found for B1 in this work.

— article PMC10692146 (2023)
